Experimental data: publication PMC6037025

Target: CHIP (UniProt Q9UNE7)
Experiment: co-IP with anti-MYC-agarose, Western blot
Conditions: reference: Flag-IRS4 wild type; sites S859

IRS4 (from UniProt O14654) Flag-IRS4 S859A
binding against the reference: lost
